Test: soluble on expression in E. coli; label from the status in PepcDB or PDB records

Sequence	soluble on expression in E. coli
MAAQRRSLLQSEQQPSWTDDLPLCHLSGVGSASNRSYSADGKGTESHPPEDSWLKFRSENNCFLYGVFNGYDGNRVTNFVAQRLSAELLLGQLNAEHAEADVRRVLLQAFDVVERSFLESIDDALAEKASLQSQLPEGVPQHQLPPQYQKILERLKTLEREISGGAMAVVAVLLNNKLYVANVGTNRALLCKSTVDGLQVTQLNVDHTTENEDELFRLSQLGLDAGKIKQVGIICGQESTRRIGDYKVKYGYTDIDLLSAAKSKPIIAEPEIHGAQPLDGVTGFLVLMSEGLYKALEAAHGPGQANQEIAAMIDTEFAKQTSLDAVAQAVVDRVKRIHSDTFASGGERARFCPRHEDMTLLVRNFGYPLGEMSQPTPSPAPAAGGRVYPVSVPYSSAQSTSKTSVTLSLVMPSQGQMVNGAHSASTLDEATPTLTNQSPTLTLQSTNTHTQSSSSSSDGGLFRSRPAHSLPPGEDGRVEPYVDFAEFYRLWSVDHGEQSVVTAP	not soluble
MAARPITLGIDLGTTSVKAALLRAAPDDPSGFAVLASCARAARAEAAVESAVAGPQGREQDVSRILQALHECLAALPRPQLRSVVGIGVSGQMHGVVFWKTGQGCEWTEGGITPVFEPRAVSHLVTWQDGRCSSEFLASLPQPKSHLSVATGFGCATIFWLLKYRPEFLKSYDAAGTIHDYVVAMLCGLPRPLMSDQNAASWGYFNTQSQSWNVETLRSSGFPVHLLPDIAEPGSVAGRTSHMWFEIPKGTQVGVALGDLQASVYSCMAQRTDAVLNISTSVQLAASMPSGFQPAQTPDPTAPVAYFPYFNRTYLGVAASLNGGNVLATFVHMLVQWMADLGLEVEESTVYSRMIQAAVQQRDTHLTITPTVLGERHLPDQLASVTRISSSDLSLGHVTRALCRGIVQNLHSMLPIQQLQEWGVERVMGSGSALSRNDVLKQEVQRAFPLPMSFGQDVDAAVGAALVMLRRHLNQKES	not soluble
MAATTKKPEIAAQHKPQTAAAAVASPATGAQPGHYVDPAVASAAGVNNVPAQHQAPGSPAQGYGAAADIGGLTTQPTAISAGTSSIYSTATHSGSAAAQGMAAAQGGSAQKIIPAVSSVYSAPIQPSQPQPVAAPVAVPVAAQVPPEQHSENRQPAAVPVPQPEQRAAAQPATNAGATVEGREGEGRSLTLAAFFAGAAKKRLPKMIESGTAGNTEVAALSGAADGSMGIALSGRSMMSEEFDDAHLDEEDDQPNGLMKLASLSGLTRVSPNGLFLQTDHVEVGCFKPELVRMIKDVERHYNSPAIVTSGYRPPKGIRQGSKHYTCDAADIQIKGVSKWELATYLRSLPDRGGVGTYCHTESVHMDTGEARDWNWRCRRTAARK	not soluble
MACLCLANISWATVCANSTGVAEDEHYDLSNVFNSTNNQPGQIVVLPEKSGWVGVSAICPPGTLVNYTYRSYVTNFIVQETIDNYKYMQLNDYLLGAMSLVDSVMDIQFPPQNYIRMGTDPNVSQNLPFGVMDSRLIFRLKVIRPFINMVEIPRQVMFTVYVTSTPYDPLVTPVYTISFGGRVEVPQNCELNAGQIVEFDFGDIGASLFSAAGPGNRPAGVMPQTKSIAVKCTNVAAQAYLTMRLEASAVSGQAMVSDNQDLGFIVADQNDTPITPNDLNSVIPFRLDAAAAANVTLRAWPISITGQKPTEGPFSALGYLRVDYQ	not soluble
MADDGLGDVPMETESMPQYTISHVIEAHKSDTKALAVTQGGCLISGGRDETVKFWAKKGKQYTKTHAFEQPKGITVNSIAYAELADGWRLFVGRRDGTIAVFGPSQAEPYAIFNEHKQNVCCLHINEKATHMLSGSWDSNVIIWPITELNSSSFTTIVCPGHTLSVWALASFPDLPNTYLSASADKTIRMWFGDTTLSVFKGHTDVVRALVVLSSSHFLSAGNDGHIIHWDVASASILRKFATQAHEFIYSMTLSDSHILTTGEDGTLEFWAIDGGKDGNLAIVSEAVIQLPTTNTWDAKVLLNSDIAVAGSDGRIYIMTTDKNRKADDDILDAFDAEVVAKLTAKTERMKQEEHETVTIKVDIDDRPTQLNLKYKKGTDPGLCAQEFLSENNLPIHYLEEITRFIKDRIPEARAFDLKSGKKVIVDGKEYDYALGVNFGKGEPDKQMPFNVNESPQFAAQRFVERHQLPVSVIPSLAGMISQEMDKLSKGAASAQSGYEDPFTGPGRYVPQGSSNSGGHGADPFTGSGRYVPQASNSSGFDTGFSGDPLTGDGGYRASAPENTGSHAVPLSSLPQNKKKPRGPLVPVPDFYIIGLAGKGEKAIAKLKELNEKQDAFQLNPDQINGLEELFVLPTSSNYSSEVTQSAFEMSLQWPVEHLTPVLDFLRIALTHHSLNSYFCDRERGQELVGRLIAILVSDPADVALKVLVCRCIANAFSHPVGRNLFASTELSTLAPLVVRQVLNEKTVLQMSAATALANWSLALLQQSEQCEQLGPKEDLLRAILNGIESVDSFGYLGEDAIIRLLQALVTVMWGDASVIRLAKNRNIAQIAARLKDAVSNDSGKNIARDIVEMTYAV	not soluble
MADEINEIREEQEQLAPFDPSKKKKKKKVVIQEPVEDLAESSQTEKSDSLPVNDGLESSFTGMKKKKKKPTESSLLNNESVDAGEDLDEIANDEQEGEEGIVLQQRYPWEGSERDYIYDELLGRVFNILRENNPELAGDRRRTVMRPPQVLREGTKKTVFVNFMDLCKTMHRQPDHVMQYLLAELGTSGSLDGQQRLVVKGRFAPKNFEGILRRYITDYVICLGCKSPDTILSKENRLFFLRCEKCGSQRSVAPIKTGFVARVSRRKT	soluble
MADLQKNFQTSFRDAMASCAAGVHVITTDGAAGRYGITMTAVAPVTDEPPTVMLCINRSARIIPILSENGSLCINTLADEHQDVAEHFAGLTGLSPEERFAYHIWHRGKTGQLEIEGALAHLHGHIVGKHEIGTHFVFYVRLDEIKNCGCKRPALLYFRRQFRFLD	not soluble
MADNGNEEDRNGYIINRTRFAADFHNRNEDLSEWEEMRGIEWDLILHSDGGQLYTQLVTRSRLQYEIPCKFLLEAQYGQVKVGENFDVTVSSRNHTFGMRIDQPADNGAIKITAYIDF	not soluble
MADNYVIWFENLRMTDVERVGGKNASLGEMISQLTEKGVRVPGGFATTAEAYRAFLAHNGLSERISAALAKLDVEDVAELARVGKEIRQWILDTPFPEQLDAEIEAAWNKMVADAGGADISVAVRSSATAEDLPDASFAGQQETFLNINGLDNVKEAMHHVFASLYNDRAISYRVHKGFEHDIVALSAGVQRMVRSDSGASGVMFTLDTESGYDQVVFVTSSYGLGENVVQGAVNPDEFYVFKPTLKAGKPAILRKTMGSKHIKMIFTDKAEAGKSVTNVDVPEEDRNRFSITDEEITELAHYALTIEKHYGRPMDIEWGRDGLDGKLYILQARPETVKSQEEGNRNLRRFAINGDKTVLCEGRAIGQKVGQGKVRLIKDASEMDSVEAGDVLVTDMTDPDWEPV	not soluble
MADSELQSAIGNNEECVNLFSDCDNVFVVAGISPLIDFQNNLNRIENYLCQKKIVGVKLYPGHEQFYLNDPRLESVFLLCEAFDVPVAVHTGWDNPHFNAPALFADIAGKHPKLKIVNCHLWYPKIDYCYEVTRDYQNIYYDISSLADDKGNKSKITEVLHRIANENPHRLIFGSDYGMCDPMAHIELVDRLPVSDETREMIFYKNAVGLYGLSRING	soluble
MADSGTAGGAALAAPAPGPGSGGPGPRVYFQSPPGAAGEGPGGADDEGPVRRQGKVTVKYDRKELRKRLNLEEWILEQLTRLYDCQEEEIPELEIDVDELLDMESDDARAARVKELLVDCYKPTEAFISGLLDKIRGMQKLSTPQKK	soluble
MADSLDRLYQAVLAARDLDPATSRTARLFQRGSGKMAKKLAEEAIEVVIDAVNGNREAVIRESADLLYNLTVLWASAGVRPEDVWAEMRRRENLLGIAEKLPKSRIGKPAAPHATRRPVIPQEARAVRKHR	not soluble

Reference: the DeepSol protein solubility set
